These results are taken from patent US9376684.

Data set [1] concerns native full-length hirudin (Biopharm).
Data set [2] has as its system synthetic C-terminal hirudin dodecapeptide analog comprising hirudin residues 53-64, with sulfato-Tyr64 (American Diagnostica).
The target in data set [3] is TFPI1-183-CD4 (UniProt P10646).
The target of data set [4] is TFPI1-276-CD4 (UniProt P10646).
Data set [5] addresses TFPI1-183-CD4 (UniProt P10646). As to the kind of experiment: flow cytometry, DAP.3 transfectants incubated with increasing FXa.
For data set [6], the target named is TFPI1-276-CD4 (UniProt P10646). The description is as above.

As to thrombin, the entries for the “thrombin-dependent catalytic activity (cleavage of chromogenic substrate S-2238)” value in data set [1] and in data set [2] were “no chromogenic conversion was observed with thrombin incubated with PPACK-HCl or hirudin as compared to thrombin incubated without inhibitor” and “the dodecapeptide did not influence thrombin-dependent catalytic activity as measured by cleavage of S-2238”, respectively.

Take FXa: the “proteolytic activity of FXa (chromogenic substrate S-2765; time required to reach OD405=0.1)” value in the data set with TFPI1-183-CD4 [3] and with TFPI1-276-CD4 [4] was “FXa activity was inhibited by expressed TFPI-CD4 in a dose dependent manner with the greatest inhibition noted when low concentrations of FXa (0.16 nM) were added” throughout.

As for “FXa (from UniProt P00742 41-488) (enzyme)”, the FXa concentration at which significant binding was detected in the data set with TFPI1-183-CD4 [5] and with TFPI1-276-CD4 [6] was 0.02 nM in each case.
